# Source: publication PMC11006472
# Molecular target: human ER membrane protein complex (EMC) with EMC2-3xFlag and EMC5-Twin-Strep (human (endogenous in Expi293F) | human) (UniProt Q8N766)
# Assay: cryo-EM structure; VDAC1-bound class of the purified human EMC sample in digitonin (complex co-purified from cells), single-particle cryo-EM, 3.32 Å
# UniProt Q8N766, sequence (Q8N766 whole entry, looked up, one chain of several): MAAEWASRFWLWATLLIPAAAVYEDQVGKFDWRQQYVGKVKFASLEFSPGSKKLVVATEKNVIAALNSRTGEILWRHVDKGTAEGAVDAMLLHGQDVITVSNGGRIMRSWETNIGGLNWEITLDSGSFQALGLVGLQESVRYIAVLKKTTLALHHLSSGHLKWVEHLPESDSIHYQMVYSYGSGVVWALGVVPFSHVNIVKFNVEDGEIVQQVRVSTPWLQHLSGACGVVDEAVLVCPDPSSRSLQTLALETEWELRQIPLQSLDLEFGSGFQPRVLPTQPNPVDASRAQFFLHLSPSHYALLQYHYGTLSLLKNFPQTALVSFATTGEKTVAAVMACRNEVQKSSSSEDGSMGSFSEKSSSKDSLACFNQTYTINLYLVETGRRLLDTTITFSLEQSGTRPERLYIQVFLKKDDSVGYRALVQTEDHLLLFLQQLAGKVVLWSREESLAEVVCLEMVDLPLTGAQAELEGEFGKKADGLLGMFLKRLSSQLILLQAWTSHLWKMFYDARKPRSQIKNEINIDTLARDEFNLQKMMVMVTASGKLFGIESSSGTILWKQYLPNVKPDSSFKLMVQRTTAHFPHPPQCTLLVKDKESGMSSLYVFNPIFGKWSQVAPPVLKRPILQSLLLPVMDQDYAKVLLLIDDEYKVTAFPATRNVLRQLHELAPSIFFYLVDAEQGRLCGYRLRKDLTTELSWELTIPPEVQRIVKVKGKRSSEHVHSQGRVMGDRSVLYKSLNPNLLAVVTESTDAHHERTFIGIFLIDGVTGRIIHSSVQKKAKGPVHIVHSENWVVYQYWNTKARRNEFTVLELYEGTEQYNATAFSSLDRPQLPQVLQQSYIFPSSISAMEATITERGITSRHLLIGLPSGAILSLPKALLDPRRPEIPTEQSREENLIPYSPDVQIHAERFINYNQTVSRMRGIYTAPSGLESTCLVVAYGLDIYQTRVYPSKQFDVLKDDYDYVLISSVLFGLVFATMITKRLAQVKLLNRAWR
substance,measurement,value
"voltage-dependent anion channel 1 (VDAC1), endogenous (from UniProt P21796 1-283) (natural protein)",stoichiometry N,1
